Measured values reported in paper PMC2745997 (Nature neuroscience, 2009).

Experiments:
UNC-5/HA (C. elegans) = assay: LUMIER
RCM-HA (in Cos-7 cells) = RCM-HA (in Cos-7 cells) ( (mammalian), UniProt O08747 41-931); assay: radioligand binding
Sequence of RCM-HA (in Cos-7 cells) (O08747 41-931): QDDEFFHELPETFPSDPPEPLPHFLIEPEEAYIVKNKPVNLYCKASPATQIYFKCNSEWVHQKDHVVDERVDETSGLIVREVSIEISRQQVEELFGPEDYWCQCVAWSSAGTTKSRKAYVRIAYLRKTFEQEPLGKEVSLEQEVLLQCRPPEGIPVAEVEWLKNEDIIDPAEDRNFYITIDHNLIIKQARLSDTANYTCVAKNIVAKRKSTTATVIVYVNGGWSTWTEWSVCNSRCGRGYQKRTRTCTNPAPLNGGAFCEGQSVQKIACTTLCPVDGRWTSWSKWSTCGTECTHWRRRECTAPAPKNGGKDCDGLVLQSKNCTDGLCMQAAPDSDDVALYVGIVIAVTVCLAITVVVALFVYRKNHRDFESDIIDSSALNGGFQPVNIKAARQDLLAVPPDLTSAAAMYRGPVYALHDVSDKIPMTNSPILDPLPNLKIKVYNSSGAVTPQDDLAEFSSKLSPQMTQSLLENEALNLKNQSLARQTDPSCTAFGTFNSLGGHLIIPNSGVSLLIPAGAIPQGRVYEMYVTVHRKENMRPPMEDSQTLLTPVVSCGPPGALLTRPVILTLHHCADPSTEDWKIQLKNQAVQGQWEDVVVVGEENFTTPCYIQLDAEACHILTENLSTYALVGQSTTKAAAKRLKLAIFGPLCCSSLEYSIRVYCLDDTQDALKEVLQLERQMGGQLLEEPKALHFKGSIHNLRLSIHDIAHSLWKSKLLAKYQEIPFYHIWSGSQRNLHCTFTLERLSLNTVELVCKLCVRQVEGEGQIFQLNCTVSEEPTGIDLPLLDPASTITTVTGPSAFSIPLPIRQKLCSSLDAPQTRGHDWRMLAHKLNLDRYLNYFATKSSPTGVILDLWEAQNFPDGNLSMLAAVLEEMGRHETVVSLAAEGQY

Sequence of UNC-5/HA (C. elegans) (Q26261 whole entry): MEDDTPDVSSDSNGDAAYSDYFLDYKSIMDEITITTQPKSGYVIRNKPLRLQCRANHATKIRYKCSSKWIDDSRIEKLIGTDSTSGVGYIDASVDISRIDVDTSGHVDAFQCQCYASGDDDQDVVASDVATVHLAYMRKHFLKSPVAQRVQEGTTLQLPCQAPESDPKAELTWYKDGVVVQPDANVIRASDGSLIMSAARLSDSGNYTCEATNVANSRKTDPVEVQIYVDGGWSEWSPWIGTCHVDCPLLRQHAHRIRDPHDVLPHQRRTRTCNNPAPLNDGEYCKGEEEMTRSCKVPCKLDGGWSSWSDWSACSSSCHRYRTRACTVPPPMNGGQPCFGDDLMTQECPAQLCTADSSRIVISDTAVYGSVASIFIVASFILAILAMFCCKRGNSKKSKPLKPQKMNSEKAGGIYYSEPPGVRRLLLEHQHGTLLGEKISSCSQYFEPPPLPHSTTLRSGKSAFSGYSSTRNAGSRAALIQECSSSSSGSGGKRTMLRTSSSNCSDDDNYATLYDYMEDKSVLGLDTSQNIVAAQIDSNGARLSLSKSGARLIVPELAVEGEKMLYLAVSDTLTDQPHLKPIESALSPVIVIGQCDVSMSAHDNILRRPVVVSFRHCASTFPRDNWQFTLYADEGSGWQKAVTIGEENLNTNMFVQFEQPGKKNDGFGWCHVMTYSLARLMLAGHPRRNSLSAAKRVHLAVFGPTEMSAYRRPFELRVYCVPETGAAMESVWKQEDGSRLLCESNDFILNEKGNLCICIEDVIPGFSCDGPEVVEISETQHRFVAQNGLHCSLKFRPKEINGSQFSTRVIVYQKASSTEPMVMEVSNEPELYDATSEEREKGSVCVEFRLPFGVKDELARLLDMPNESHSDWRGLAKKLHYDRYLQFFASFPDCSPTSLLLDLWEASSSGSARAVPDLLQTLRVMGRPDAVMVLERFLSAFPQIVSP

| fold increase in luciferase activity over mock transfected cells (UNC-5/HA (C. elegans)) [fold] | Kd (RCM-HA (in Cos-7 cells)) [nM] | Molecule |
| --- | --- | --- |
| 7 |  | Gluc-UNC-129 (from UniProt G5EBY8 19-407) (ligand) |
|  | 4 | 125I-BMP7 (ligand, UniProt P18075 293-431, looked up, 125I label (iodinated)) STGSKQRSQNRSKTPKNQEALRMANVAENSSSDQRQACKKHELYVSFRDLGWQDWIIAPEGYAAYYCEGECAFPLNSYMNATNHAIVQTLVHFINPETVPKPCCAPTQLNAISVLYFDDSSNVILKKYRNMVVRACGCH |
